Source: the supplement of paper PMC10567573

B1: PDZK1 (parent)
chain: QKEQGLSDNILSPVMNGGVQTWTQ

Variants of: B1
Test: protein stability index of a GFP-peptide fusion (GPS, HEK-293T) (PSI 1-6); higher = more stable
Settings: c terminus: a fixed tail appended
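Note: lentivirally expressed fusions sorted by FACS into six bins by GFP to DsRed ratio, PSI derived from sequencing read proportions per bin multiplied by bin number.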

Variant | protein stability index
QKEQGLSDNILSPVMNGGVQTWTC | 2.14
QKEQGLSDNILSPVMNGGVQTWTP | 4.43
QKEQGLSDNILSPVMNGGVQTWTK | 3.55
QKEQGLSDNILSPVMNGGVQTWTF | 1.78
QKEQGLSDNILSPVMNGGVQTWTI | 2.36
QKEQGLSDNILSPVMNGGVQTWTR | 3.35
QKEQGLSDNILSPVMNGGVQTWTD | 3.13
QKEQGLSDNILSPVMNGGVQTWTS | 1.68
QKEQGLSDNILSPVMNGGVQTWTG | 3.58
QKEQGLSDNILSPVMNGGVQTWTV | 2.72
QKEQGLSDNILSPVMNGGVQTWTE | 3.43
QKEQGLSDNILSPVMNGGVQTWTH | 2.84
QKEQGLSDNILSPVMNGGVQTWTT | 3.66
QKEQGLSDNILSPVMNGGVQTWTM | 2.26
QKEQGLSDNILSPVMNGGVVTWTQ | 2.67
QKEQGLSDNILSPVMNGGVGTWTQ | 3.02
QKEQGLSDNILSPVMNGGVLTWTQ | 2.14
QKEQGLSDNILSPVMNGGVSTWTQ | 2.88
QKEQGLSDNILSPVMNGGVWTWTQ | 3.36
QKEQGLSDNILSPVMNGGVCTWTQ | 2.16
QKEQGLSDNILSPVMNGGVETWTQ | 1.58
QKEQGLSDNILSPVMNGGVDTWTQ | 3.29
QKEQGLSDNILSPVMNGGVATWTQ | 3.69
QKEQGLSDNILSPVMNGGVTTWTQ | 3

Variant | protein stability index
QKEQGLSDNILSPVMNGGVFTWTQ | 2.68
QKEQGLSDNILSPVMNGGVYTWTQ | 2.68
QKEQGLSDNILSPVMNGGVITWTQ | 2.49
QKEQGLSDNILSPVMNGGVNTWTQ | 3.73
QKEQGLSDNILSPVMNGGVPTWTQ | 3.07
QKEQGLSDNILSPVMNGGVKTWTQ | 3.8
QKEQGLSDNILSPVMNGGVQTWYQ | 3.05
QKEQGLSDNILSPVMNGGVQTWRQ | 3.42
QKEQGLSDNILSPVMNGGVQTWNQ | 3.12
QKEQGLSDNILSPVMNGGVQTWDQ | 3.67
QKEQGLSDNILSPVMNGGVQTWMQ | 3.74
QKEQGLSDNILSPVMNGGVQTWIQ | 4
QKEQGLSDNILSPVMNGGVQTWVQ | 1.56
QKEQGLSDNILSPVMNGGVQTWQQ | 2.16
QKEQGLSDNILSPVMNGGVQTWPQ | 4.25
QKEQGLSDNILSPVMNGGVQTWGQ | 3.5
QKEQGLSDNILSPVMNGGVQTWKQ | 3.39
QKEQGLSDNILSPVMNGGVQTWFQ | 3.02
QKEQGLSDNILSPVMNGGVQTWWQ | 2.96
QKEQGLSDNILSPVMNGGVQTWSQ | 3.43
QKEQGLSDNILSPVMNGGVQTRTQ | 5.04
QKEQGLSDNILSPVMNGGVQTHTQ | 4.59
QKEQGLSDNILSPVMNGGVQTSTQ | 5.05
QKEQGLSDNILSPVMNGGVQTNTQ | 5.08

Variant | protein stability index
QKEQGLSDNILSPVMNGGVQTQTQ | 5.24
QKEQGLSDNILSPVMNGGVQTKTQ | 4.93
QKEQGLSDNILSPVMNGGVQTFTQ | 3.97
QKEQGLSDNILSPVMNGGVQTITQ | 4.88
QKEQGLSDNILSPVMNGGVQTPTQ | 5.07
QKEQGLSDNILSPVMNGGVQTYTQ | 4.09
QKEQGLSDNILSPVMNGGVQTATQ | 4.41
QKEQGLSDNILSPVMNGGVQTMTQ | 4.55
QKEQGLSDNILSPVMNGGVQTCTQ | 4.8
QKEQGLSDNILSPVMNGGVQTDTQ | 4.78
QKEQGLSDNILSPVMNGGVQTETQ | 4.3
QKEQGLSDNILSPVMNGGPQTWTQ | 3.44
QKEQGLSDNILSPVMNGGDQTWTQ | 4.3
QKEQGLSDNILSPVMNGGEQTWTQ | 3.7
QKEQGLSDNILSPVMNGGTQTWTQ | 3.09
QKEQGLSDNILSPVMNGGNQTWTQ | 2.6
QKEQGLSDNILSPVMNGGHQTWTQ | 2.58
QKEQGLSDNILSPVMNGGFQTWTQ | 2.42
QKEQGLSDNILSPVMNGGMQTWTQ | 1.9
QKEQGLSDNILSPVMNGGRQTWTQ | 1.85
QKEQGLSDNILSPVMNGGIQTWTQ | 2.17
QKEQGLSDNILSPVMNGGGQTWTQ | 2.9
QKEQGLSDNILSPVMNGGYQTWTQ | 1.86
QKEQGLSDNILSPVMNGGKQTWTQ | 2.16

Variant | protein stability index
QKEQGLSDNILSPVMNGGAQTWTQ | 2.99
QKEQGLSDNILSPVMNYGVQTWTQ | 2.5
QKEQGLSDNILSPVMNSGVQTWTQ | 3.31
QKEQGLSDNILSPVMNWGVQTWTQ | 1.85
QKEQGLSDNILSPVMNRGVQTWTQ | 2.04
QKEQGLSDNILSPVMNMGVQTWTQ | 2.36
QKEQGLSDNILSPVMNTGVQTWTQ | 2.25
QKEQGLSDNILSPVMNLGVQTWTQ | 2.8
QKEQGLSDNILSPVMNVGVQTWTQ | 3.6
QKEQGLSDNILSPVMNGYVQTWTQ | 2.45
QKEQGLSDNILSPVMNGCVQTWTQ | 2.54
QKEQGLSDNILSPVMNGIVQTWTQ | 2.61
QKEQGLSDNILSPVMNGFVQTWTQ | 2.45
QKEQGLSDNILSPVMNGDVQTWTQ | 3.35
QKEQGLSDNILSPVMNGKVQTWTQ | 1.53
QKEQGLSDNILSPVMNGVVQTWTQ | 2.47
QKEQGLSDNILSPVMNGRVQTWTQ | 1.84
QKEQGLSDNILSPVMNGPVQTWTQ | 3.46
QKEQGLSDNILSPVMNGSVQTWTQ | 2.65
QKEQGLSDNILSPVMNGWVQTWTQ | 2.33
QKEQGLSDNILSPVMNGHVQTWTQ | 2.62
QKEQGLSDNILSPVMNGLVQTWTQ | 2.58
